From patent US20040213780A1
Values belong to the substance of their own block, whether it stands above or below them.

Columns and labels:
Assay in all cases: cell-based or functional assay
[1] = biological target: purified Sp1 (Promega Corp.) (UniProt P08047)
[2] = biological target: Sp1 in human brain tissue (endogenous) (human) (UniProt P08047)
[3] = biological target: Sp1 in nuclear extracts of primary rat striatal neurons (endogenous) (rat) (UniProt Q01714)
Sp1 in nuclear extracts of primary rat striatal neurons (endogenous) (rat), sequence (Q01714 2-786 limits assumed): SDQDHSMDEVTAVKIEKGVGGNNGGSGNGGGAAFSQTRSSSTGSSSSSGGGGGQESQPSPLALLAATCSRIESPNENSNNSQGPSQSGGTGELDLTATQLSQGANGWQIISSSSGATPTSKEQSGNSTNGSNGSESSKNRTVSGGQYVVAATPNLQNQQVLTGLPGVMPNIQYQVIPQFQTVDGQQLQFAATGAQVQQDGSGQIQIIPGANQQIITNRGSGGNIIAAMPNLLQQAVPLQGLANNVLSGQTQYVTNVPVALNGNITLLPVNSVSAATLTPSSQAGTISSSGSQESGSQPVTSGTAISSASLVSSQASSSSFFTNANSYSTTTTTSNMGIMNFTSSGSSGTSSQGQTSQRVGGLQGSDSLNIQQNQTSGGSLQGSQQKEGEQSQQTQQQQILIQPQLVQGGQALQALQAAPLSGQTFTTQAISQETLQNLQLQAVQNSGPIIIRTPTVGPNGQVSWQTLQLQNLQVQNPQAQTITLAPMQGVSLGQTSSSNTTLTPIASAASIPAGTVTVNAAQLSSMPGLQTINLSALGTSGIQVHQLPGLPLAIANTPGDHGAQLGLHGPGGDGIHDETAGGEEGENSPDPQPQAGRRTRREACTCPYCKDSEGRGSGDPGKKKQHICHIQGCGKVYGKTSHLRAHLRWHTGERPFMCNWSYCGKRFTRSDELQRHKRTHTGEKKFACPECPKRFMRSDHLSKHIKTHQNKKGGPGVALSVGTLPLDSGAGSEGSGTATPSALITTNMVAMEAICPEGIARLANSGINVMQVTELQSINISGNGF

purified Sp1 (Promega Corp.), sequence (P08047 8-785 limits assumed): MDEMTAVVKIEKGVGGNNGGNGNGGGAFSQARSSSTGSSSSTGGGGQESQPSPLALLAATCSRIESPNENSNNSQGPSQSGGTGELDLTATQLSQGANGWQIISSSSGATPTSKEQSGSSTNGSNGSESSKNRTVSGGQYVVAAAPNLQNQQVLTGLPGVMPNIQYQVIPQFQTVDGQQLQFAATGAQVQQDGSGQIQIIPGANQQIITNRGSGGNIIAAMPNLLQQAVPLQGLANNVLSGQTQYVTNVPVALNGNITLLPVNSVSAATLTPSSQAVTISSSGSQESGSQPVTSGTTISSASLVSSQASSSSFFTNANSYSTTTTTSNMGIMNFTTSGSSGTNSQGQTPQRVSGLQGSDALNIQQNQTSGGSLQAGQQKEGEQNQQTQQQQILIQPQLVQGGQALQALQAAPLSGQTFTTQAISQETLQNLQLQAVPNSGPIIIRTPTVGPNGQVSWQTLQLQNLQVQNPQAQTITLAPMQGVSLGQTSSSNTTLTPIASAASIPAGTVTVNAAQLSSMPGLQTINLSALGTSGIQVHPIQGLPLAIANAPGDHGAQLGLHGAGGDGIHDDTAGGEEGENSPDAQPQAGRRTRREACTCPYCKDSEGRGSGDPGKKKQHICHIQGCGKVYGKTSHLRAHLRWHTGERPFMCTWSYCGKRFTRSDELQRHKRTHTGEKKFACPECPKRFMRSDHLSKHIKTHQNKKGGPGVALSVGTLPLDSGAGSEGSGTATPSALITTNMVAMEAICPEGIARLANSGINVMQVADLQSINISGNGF
Sp1 in human brain tissue (endogenous) (human), sequence (P08047 2-785 limits assumed): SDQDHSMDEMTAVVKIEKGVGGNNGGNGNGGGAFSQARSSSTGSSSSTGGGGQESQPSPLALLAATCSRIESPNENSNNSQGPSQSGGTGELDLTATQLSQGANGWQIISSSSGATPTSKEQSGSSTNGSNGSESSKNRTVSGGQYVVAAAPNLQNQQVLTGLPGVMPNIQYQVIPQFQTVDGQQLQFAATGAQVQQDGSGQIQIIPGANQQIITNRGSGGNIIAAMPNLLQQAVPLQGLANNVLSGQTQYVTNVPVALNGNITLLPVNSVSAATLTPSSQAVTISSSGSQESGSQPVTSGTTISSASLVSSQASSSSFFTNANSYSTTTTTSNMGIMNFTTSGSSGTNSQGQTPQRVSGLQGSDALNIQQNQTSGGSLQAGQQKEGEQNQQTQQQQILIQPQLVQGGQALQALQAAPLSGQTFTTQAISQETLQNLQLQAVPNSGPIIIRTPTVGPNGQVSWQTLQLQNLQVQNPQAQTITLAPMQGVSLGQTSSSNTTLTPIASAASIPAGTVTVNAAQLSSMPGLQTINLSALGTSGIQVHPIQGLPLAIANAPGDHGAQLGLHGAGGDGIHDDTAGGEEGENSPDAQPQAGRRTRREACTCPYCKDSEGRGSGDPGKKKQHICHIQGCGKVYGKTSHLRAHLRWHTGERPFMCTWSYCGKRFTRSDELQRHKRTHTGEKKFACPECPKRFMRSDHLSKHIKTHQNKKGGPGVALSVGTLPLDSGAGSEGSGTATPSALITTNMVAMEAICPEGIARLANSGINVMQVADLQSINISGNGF

reduction in Sp1 binding to a labeled consensus Sp1 site (EMSA with purified proteins) [1]: 20%
Substance: glutathione S-transferase (GST)-huntingtin fusion protein with 20 glutamines (from UniProt P42858 1-88)

inhibition of Sp1 binding to a labeled consensus Sp1 site (EMSA with purified proteins) [1]: 70%
Substance: glutathione S-transferase (GST)-huntingtin fusion protein with 51 glutamines (from UniProt P42858 1-88)

decrease of Sp1 binding to its D2 binding site (EMSA, nuclear extracts of caudate, grade 1 HD brain against control brain) [2]: 39%
decrease of Sp1 binding to its D2 binding site (EMSA, nuclear extracts of caudate, grade 4 HD brain against control brain) [2]: 48%
Substance: huntingtin in human HD brain tissue (endogenous) (from UniProt P42858 1-3142)

inhibition of Sp1 binding to a labeled D2 promoter fragment (EMSA, nuclear extracts of transfected striatal cells) [3]: 55%
Substance: mutant full-length huntingtin with 75 glutamines (HttQ75), P42858 1-3142
